Assay results published in patent publication US20160031996A1 (CSL, published 2016).

Columns and labels:
Test in all cases: Western blot, supernatants of 293FS cells
[1] = biological target: T1, soluble human IL-3Rα 1-306-His Y67A (human, UniProt P26951 19-307)
T1 construct: supernatant of 293FS cells; also called Y67, soluble alanine
T1 sequence: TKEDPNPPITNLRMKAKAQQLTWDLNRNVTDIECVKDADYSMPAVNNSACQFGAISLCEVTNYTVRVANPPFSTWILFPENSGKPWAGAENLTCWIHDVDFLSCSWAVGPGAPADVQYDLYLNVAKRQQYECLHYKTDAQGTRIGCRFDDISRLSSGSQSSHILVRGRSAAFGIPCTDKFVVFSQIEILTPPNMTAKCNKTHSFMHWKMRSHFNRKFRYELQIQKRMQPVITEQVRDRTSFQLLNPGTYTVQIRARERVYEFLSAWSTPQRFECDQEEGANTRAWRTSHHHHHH

[2] = biological target: T2, soluble human IL-3Rα 1-306-His F90A (human, UniProt P26951 19-307)
T2 construct: supernatant of 293FS cells; also called F90, soluble alanine
T2 sequence: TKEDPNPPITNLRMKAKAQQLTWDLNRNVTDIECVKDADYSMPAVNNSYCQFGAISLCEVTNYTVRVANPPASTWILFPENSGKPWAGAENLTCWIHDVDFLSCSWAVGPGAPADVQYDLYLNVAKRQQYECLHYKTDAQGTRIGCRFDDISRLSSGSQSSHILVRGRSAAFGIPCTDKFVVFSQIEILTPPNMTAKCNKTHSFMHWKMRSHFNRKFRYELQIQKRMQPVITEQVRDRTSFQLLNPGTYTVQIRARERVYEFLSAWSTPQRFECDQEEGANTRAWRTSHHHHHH

[3] = biological target: T3, soluble human IL-3Rα 1-306-His R84A (human, UniProt P26951 19-307)
T3 construct: supernatant of 293FS cells; also called R84, soluble alanine
T3 sequence: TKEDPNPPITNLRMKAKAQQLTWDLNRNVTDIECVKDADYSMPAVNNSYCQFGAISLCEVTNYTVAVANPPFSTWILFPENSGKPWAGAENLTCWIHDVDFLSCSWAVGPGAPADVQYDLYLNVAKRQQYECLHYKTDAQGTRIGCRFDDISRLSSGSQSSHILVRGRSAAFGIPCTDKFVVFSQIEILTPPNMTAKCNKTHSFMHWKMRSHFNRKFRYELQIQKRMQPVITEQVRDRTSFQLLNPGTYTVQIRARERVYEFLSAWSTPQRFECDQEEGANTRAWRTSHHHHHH

[4] = biological target: T4, soluble human IL-3Rα 1-306-His W93A (human, UniProt P26951 19-307)
T4 construct: supernatant of 293FS cells; also called W93, soluble alanine
T4 sequence: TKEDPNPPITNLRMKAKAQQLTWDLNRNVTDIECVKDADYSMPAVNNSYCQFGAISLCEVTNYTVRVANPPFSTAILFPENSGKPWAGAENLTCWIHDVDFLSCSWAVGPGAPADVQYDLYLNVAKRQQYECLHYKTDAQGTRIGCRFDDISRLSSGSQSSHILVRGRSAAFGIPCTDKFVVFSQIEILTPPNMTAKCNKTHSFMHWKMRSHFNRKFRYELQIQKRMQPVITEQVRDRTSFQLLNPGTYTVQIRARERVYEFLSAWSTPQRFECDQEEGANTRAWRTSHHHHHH

[5] = biological target: T5, soluble human IL-3Rα 1-306-His P97A (human, UniProt P26951 19-307)
T5 construct: supernatant of 293FS cells; also called P97, soluble alanine
T5 sequence: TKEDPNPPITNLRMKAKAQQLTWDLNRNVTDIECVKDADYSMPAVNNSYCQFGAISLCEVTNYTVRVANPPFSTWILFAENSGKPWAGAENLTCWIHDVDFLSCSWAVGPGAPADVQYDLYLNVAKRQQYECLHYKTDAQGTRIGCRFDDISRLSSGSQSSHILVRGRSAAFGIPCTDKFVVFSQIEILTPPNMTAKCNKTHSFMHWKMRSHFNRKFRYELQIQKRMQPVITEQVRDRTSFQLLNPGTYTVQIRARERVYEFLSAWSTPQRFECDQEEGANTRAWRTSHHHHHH

[6] = biological target: T6, soluble human IL-3Rα 1-306-His P88A (human, UniProt P26951 19-307)
T6 construct: supernatant of 293FS cells; also called P88, soluble alanine
T6 sequence: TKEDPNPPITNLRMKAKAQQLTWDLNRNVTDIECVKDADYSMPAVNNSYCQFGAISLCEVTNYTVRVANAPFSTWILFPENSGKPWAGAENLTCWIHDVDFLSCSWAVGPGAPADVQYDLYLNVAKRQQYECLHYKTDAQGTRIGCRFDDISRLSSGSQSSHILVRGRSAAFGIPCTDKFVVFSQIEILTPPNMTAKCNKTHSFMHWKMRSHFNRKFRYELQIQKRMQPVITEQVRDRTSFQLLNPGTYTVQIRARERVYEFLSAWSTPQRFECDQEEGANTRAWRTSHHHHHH

[7] = biological target: T7, soluble human IL-3Rα 1-306-His S59A (human, UniProt P26951 19-307)
T7 construct: supernatant of 293FS cells; also called S59, soluble alanine
T7 sequence: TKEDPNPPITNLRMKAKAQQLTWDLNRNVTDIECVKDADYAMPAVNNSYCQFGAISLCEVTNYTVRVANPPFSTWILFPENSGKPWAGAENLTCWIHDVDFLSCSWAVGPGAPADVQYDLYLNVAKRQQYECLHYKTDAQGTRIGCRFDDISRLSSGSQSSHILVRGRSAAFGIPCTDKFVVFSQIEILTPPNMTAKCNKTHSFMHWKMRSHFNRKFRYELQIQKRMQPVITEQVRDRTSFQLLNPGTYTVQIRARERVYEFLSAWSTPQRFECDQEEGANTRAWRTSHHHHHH

Measured: binding result

B1: antibody CSL362 (antibody, V domains shown)
VH: EVQLVQSGAEVKKPGESLKISCKGSGYSFTDYYMKWARQMPGKGLEWMGDIIPSNGATFYNQKFKGQVTISADKSISTTYLQWSSLKASDTAMYYCARSHLLRASWFAYWGQGTMVTVSS
VL: DIVMTQSPDSLAVSLGERATINCESSQSLLNSGNQKNYLTWYQQKPGQPPKPLIYWASTRESGVPDRFSGSGSGTDFTLTISSLQAEDVAVYYCQNDYSYPYTFGQGTKLEIKR
no binding: [1] | [2] | [3] | [4] | [5] | [6] | [7]
